Test results reported in patent publication US20160046713A1 (INNATE PHARMA, published 2016).

T1: KIR3DL2 domain 1 construct (V5-tagged, CD24-GPI anchored) on HEK-293T/17 cells (human, UniProt P43630 139-238)
T1 construct: also called pcDNA3.1/KIR3DL2 domain 1; KIR3DL2 extracellular domain 1
T1 sequence: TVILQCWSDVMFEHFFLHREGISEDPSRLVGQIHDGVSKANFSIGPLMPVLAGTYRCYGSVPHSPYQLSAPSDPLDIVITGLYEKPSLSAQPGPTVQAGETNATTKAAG


What was measured:
[1] = target: T2, human KIR3DL1 (CD158e1) on cells (human, UniProt P43629 22-444); test: two colour immunofluorescence on polyclonal NK cell populations and clones
T2 construct: Present on donor NK and T cells
T2 sequence (P43629 22-444 limits assumed): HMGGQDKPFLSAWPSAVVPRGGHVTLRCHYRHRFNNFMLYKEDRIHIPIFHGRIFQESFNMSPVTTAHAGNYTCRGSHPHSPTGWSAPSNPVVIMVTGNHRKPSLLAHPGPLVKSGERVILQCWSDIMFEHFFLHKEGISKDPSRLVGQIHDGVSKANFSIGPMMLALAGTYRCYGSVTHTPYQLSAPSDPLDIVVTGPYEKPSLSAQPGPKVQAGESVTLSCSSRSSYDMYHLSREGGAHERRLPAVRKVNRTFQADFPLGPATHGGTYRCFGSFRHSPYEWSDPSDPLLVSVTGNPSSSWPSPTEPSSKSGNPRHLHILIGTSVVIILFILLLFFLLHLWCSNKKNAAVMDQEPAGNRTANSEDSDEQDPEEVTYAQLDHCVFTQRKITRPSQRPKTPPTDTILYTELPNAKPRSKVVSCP
Source text: mAbs were generated by immunizing 5 week old Balb C mice with polyclonal IL-2 activated NK population. […] The reactivity of AZ158 was further analyzed on NK cell populations and clones in combination with additional antibodies, including EB6 ([…], CD158a), GL183 (anti-p58.2/50.2, CD158b), PAX180 (anti-p50.3) and FES172 (anti-p50.3), as well as Z27 and Q66, and it was observed that AZ158 reacted with the same cell subset stained by the anti-KIR3DL1 and anti-KIR3DL2 mAbs. Similar results were also observed using a panel of NK cell clones expressing different HLA class I specific NK receptors.

[2] = target: T3, human KIR3DS1 (CD158e2) on cells (human, UniProt P43629 22-381); test: flow cytometry with AZ158-PE on healthy donor PBMC gated on CD3+ T lymphocytes
T3 construct: Present on donor NK and T cells
T3 sequence (P43629 other isoform, or with tags, fused parts or gaps limits assumed): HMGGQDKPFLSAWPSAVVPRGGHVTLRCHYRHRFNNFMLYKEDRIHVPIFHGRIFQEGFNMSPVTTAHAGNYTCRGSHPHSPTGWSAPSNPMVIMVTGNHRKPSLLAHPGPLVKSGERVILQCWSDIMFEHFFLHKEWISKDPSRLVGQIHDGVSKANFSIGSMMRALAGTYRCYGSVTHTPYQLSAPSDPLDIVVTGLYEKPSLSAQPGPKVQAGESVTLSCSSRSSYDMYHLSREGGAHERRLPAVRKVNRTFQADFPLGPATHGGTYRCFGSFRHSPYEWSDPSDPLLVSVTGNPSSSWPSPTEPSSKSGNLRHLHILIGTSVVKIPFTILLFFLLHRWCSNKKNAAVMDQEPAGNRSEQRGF

[3] = target: T1, KIR3DL2 domain 1 construct (V5-tagged, …); test: flow cytometry on transfected HEK-293T/17 cells, goat anti-human-PE detection
Method: (§1) Transfections were performed using 5 μg of the different pcDNA3.1/KIR3DL2 domain 0, pcDNA3.1/KIR3DL2 domain 1 or pcDNA3.1/KIR3DL2 domain 2 constructs using Lipofectamine 2000 according to manufacturer instructions. To ensure DNA purity for transfection, Maxi-prep endotoxin free kit from Qiagen was used. The Lipofectamine/DNA ratio used was fixed at 2/1. Cells were harvested 48 hours after transfection for flow cytometry experiments.
(§2) Cells were harvested and stained in PBS 1×/BSA 0.2%/EDTA 2 mM buffer during 1H at 4° C. using 5 μg/ml of chiAZ158 antibody. After two washes in staining buffer, cells were stained for 30 min at 4° C. with anti-V5 antibody FITC (0.1 μl per well) and goat anti-human (H+L)-PE antibodies (1/200). After two washes, stainings were acquired on a BD FACS Canto II and analyzed using the FlowJo software.
(§3) Results are shown in FIGS. 7-10, with V5-FITC indicated on the y-axis and chAZ158-GAH-PE on the x-axis. […] No binding of the chiAZ158 antibody could be detected on KIR3DL2 domain 1 (FIG. 9) or domain 2 (FIG. 10). Therefore, it can be concluded from this flow cytometry experiment that the chAZ158 antibody binds to the KIR3DL2 extracellular domain 0 but not to domains 1 and 2.

[4] = target: T4, KIR3DL2 domain 2 construct (V5-tagged, CD24-GPI anchored) on HEK-293T/17 cells (human, UniProt P43630 239-340); test: as above
T4 construct: also called pcDNA3.1/KIR3DL2 domain 2; KIR3DL2 extracellular domain 2
T4 sequence (P43630 other isoform, or with tags, fused parts or gaps limits assumed): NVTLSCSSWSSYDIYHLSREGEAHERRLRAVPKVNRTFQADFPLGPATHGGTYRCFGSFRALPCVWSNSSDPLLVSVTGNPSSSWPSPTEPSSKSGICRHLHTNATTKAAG
Method: as §1, §2, §3

[5] = target: T5, KIR3DL1 recombinant protein (R&D systems) (Homo sapiens (Human), UniProt P43629 22-340); test: SPR (Biacore T100), receptor immobilized on chip, antibody injected at 12 µg/ml
T5 construct: Bought protein; also called KIR3DL1 chip; immobilized KIR3DL1
T5 sequence (P43629 22-340 limits assumed): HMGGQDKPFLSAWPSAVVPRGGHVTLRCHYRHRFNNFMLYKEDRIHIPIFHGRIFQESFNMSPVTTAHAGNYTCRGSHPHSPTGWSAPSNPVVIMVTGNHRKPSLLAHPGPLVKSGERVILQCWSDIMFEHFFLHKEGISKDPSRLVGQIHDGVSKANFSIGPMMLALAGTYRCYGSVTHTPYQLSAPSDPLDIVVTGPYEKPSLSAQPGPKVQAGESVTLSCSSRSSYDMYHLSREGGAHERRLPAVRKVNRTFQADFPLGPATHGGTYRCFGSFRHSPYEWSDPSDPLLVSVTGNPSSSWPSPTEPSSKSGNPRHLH
Method: The binding of chimeric AZ158 (“chAZ158”, see Example 3) to KIR3DL2 and KIR3DL1 recombinant proteins (R&D systems) was analyzed by Surface Plasmon Resonance (SPR) using a Biacore T100 apparatus. […] Antibody was injected at a constant concentration of 12 μg/ml over the KIR3DL2 and KIR3DL1 flow-cells. Background signals were subtracted online by co-injecting onto the reference flow cell (dextran alone). Sensorgrams are representative of three independent experiments.

binding result [1]	binding result [2]	binding result [3]	binding result [4]	binding result [5]	Binder
binds	binds				AZ158 (murine monoclonal antibody) (antibody, mouse IgG2b, V domains shown, also called mAb AZ158; AZ158-PE) VH: QVQLKESGPGLVAPSQSLSITCTVSGFSLTSFGVHWVRQPPGKGLEWLGVIWAGGSTNYNSALMSRLSISKDNSKSQVFLKMNSLQNDDTAMYYCARGNSNHYVSSFYYFDYWGQGTTLTVSS VL: DIQMTQSPSSLSASLGGKVTITCKASQDINKYIAWYQHKPGKGPRLLIHYTSTLQPGIPSRFSGSGSGRDYSFSISNLEPEDITTYYCLQYDNLWTFGGGTKLEIK
		no binding (tested: 5 µg/ml)	no binding (tested: 5 µg/ml)	binds	chAZ158 (chimeric AZ158, human IgG1-kappa, with the MKV6-derived kappa chain) (antibody, V domains shown, also called chiAZ158; AZ158 chimeric antibody) VH: QVQLKESGPGLVAPSQSLSITCTVSGFSLTSFGVHWVRQPPGKGLEWLGVIWAGGSTNYNSALMSRLSISKDNSKSQVFLKMNSLQNDDTAMYYCARGNSNHYVSSFYYFDYWGQGTTLTVSS VL: DIQMTQSPSSLSASLGGKVTITCKASQDINKYIAWYQHKPGKGPRLLIHYTSTLQPGIPSRFSGSGSGRDYSFSISNLEPEDITTYYCLQYDNLWTFGGGTKLEIKR
